# Experimental data taken from US20250121075A1, “ALPHA-FETOPROTEIN BIOCONJUGATES FOR DISEASE TREATMENT” (priority 2021, published 2025).
# Residue numbers refer to the chain shown, from its start. Like-named read-outs stand apart in the source and are kept apart here.
# B1: Mature [Asn233Gln]rhAFP(1-591), lacking glycosylation, produced in transgenic goats (ACT-101) (ligand)
# chain: RTLHRNEYGIASILDSYQCTAEISLADLATIFFAQFVQEATYKEVSKMVKDALTAIEKPTGDEQSSGCLENQLPAFLEELCHEKEILEKYGHSDCCSQSEEGRHNCFLAHKKPTPASIPLFQVPEPVTSCEAYEEDRETFMNKFIYEIARRHPFLYAPTILLWAARYDKIIPSCCKAENAVECFQTKAATVTKELRESSLLNQHACAVMKNFGTRTFQAITVTKLSQKFTKVQFTEIQKLVLDVAHVHEHCCRGDVLDCLQDGEKIMSYICSQQDTLSNKITECCKLTTLERGQCIIHAENDEKPEGLSPNLNRFLGDRDFNQFSSGEKNIFLASFVHEYSRRHPQLAVSVILRVAKGYQELLEKCFQTENPLECQDKGEEELQKYIQESQALAKRSCGLFQKLGEYYLQNAFLVAYTKKAPQLTSSELMAITRKMAATAATCCQLSEDKLLACGEGAADIIIGHLCIRHEMTPVNPGVGQCCTSSYANRRPCFSSLVVDETYVPPAFSDDKFIFHKDLCQAQGVALQTMKQEFLINLVKQKPQITEEQLEAVIADFSGLLEKCCQGQEQEVCFAEEGQKLISKTRAALGV
# modifications: fluorescent label, site not stated: Alexa Fluor-647 (Table 1), AlexaFluor488 (FIG. 1 competition), Alexa Fluor-488 or FITC (other studies)
# B2: AFP-ABZ982 high DPR: AFP-ABZ982 bioconjugate, average DPR 5.81 (conjugate, UniProt P02771 19-609, looked up)
# Alpha-fetoprotein: B1 chain with Q233N
# modifications: ABZ982 toxin conjugate, DPR 5.81
# B3: HM023-2: Series 1 AFP bioconjugate, toxin printed DME (DM3), DPR 4.8 (conjugate, UniProt P02771 19-609, looked up)
# Alpha-fetoprotein: B1 chain with Q233N
# modifications: DM3 maytansinoid toxin conjugate, DPR 4.8
# B4: ACT-101 (protein)
# chain: B1 chain
# B5: AFP-ABZ982 low DPR: AFP-ABZ982 bioconjugate, average DPR 3.74 (conjugate, UniProt P02771 19-609, looked up)
# Alpha-fetoprotein: B1 chain with Q233N
# modifications: ABZ982 toxin conjugate, DPR 3.74
# B6: AFP-ABZ982: AFP linked via di-methylated disulfide linker to ABZ-981, mixture of n 1-11 (conjugate)
# chain: B1 chain
# modifications: non-natural residues
# B7: AFP-ABZ1827 low DPR: AFP-ABZ1827 bioconjugate, average DPR 3.92 (conjugate, UniProt P02771 19-609, looked up)
# Alpha-fetoprotein: B1 chain with Q233N
# modifications: ABZ1827 toxin conjugate, DPR 3.92
# B8: AFP-ABZ1827: AFP linked via mono-methylated disulfide linker to ABZ-981, mixture of n 1-11 (conjugate)
# chain: B1 chain
# modifications: non-natural residues
# B9: AFP-ABZ981 conjugate: AFP bioconjugate releasing ABZ981, DPR 4.0, tested in the PK/BD study (conjugate, UniProt P02771 19-609, looked up)
# Alpha-fetoprotein: B1 chain with Q233N
# modifications: ABZ981-releasing toxin conjugate, DPR 4.0
# What was measured:
# [1] = tested on: SKOV3 cells; test: Cytotoxicity of AFP-ABZ982 and AFP-ABZ1827 bioconjugates, 4 day incubation; assay type: cell-based, human; conditions: Homo sapiens, SK-OV-3, 96 h, read-out: Average IC50 SKOV3 cells (n = 1); 4 days
# Method: (§1) Bioconjugates containing ABZ981 with two different release functionalities (AFP-ABZ982 and AFP-ABZ1827) were subsequently prepared at DPRs of 2.5 to 6.3. Cells were incubated for 4 days in the presence of the compounds over an 8-point concentration range, with each concentration tested in triplicate. Two experiments performed using freshly thawed U937 cells gave similar results to U937 cells maintained in culture.
# [2] = tested on: U937 cells; test: as above; assay type: cell-based, human; conditions: Homo sapiens, U-937, 96 h, 4 days
# Method: as §1
# [3] = tested on: COLO-205 cells; test: CellTiter-Glo cell viability, 72 hours; assay type: cell-based, human
# Method: Turning to Table 5, two bioconjugates of each of AFP-ABZ982 and AFP-ABZ1827 (4 in total) were prepared at DPRs of approximately 4 (“low DPR”) and 6 (“high DPR”) for efficacy testing in vivo in the COLO-205 human tumor xenograft model. Potency in the COLO-205 cell line prior to implantation was assessed. Briefly, 96 well plates were seeded with COLO-205 cells either at 5,000 or 2,500 cells per well in a total volume to 50 μL per well. Plates were incubated overnight then treated with the bioconjugate at 37° C. for 72 hours and then a CellTiter-Glo assay was performed to measure cell viability. Samples were run in triplicate.
# [4] = molecular target: alpha-fetoprotein (AFP) receptor (AFPR) (human); test: AF-647 labeled rhAFP incubated with H522 cells at 37 C for 0.5, 2 and 5 h, plate reader fluorescence
# [5] = molecular target: alpha-fetoprotein (AFP) receptor (AFPR) (human); test: AF-647 labeled rhAFP incubated with MCF7 cells at 37 C for 0.5, 2 and 5 h, plate reader fluorescence
# [6] = molecular target: alpha-fetoprotein (AFP) receptor (AFPR) (human); test: AF-647 labeled rhAFP incubated with U-937 cells at 37 C for 0.5, 2 and 5 h, plate reader fluorescence
# [7] = molecular target: alpha-fetoprotein (AFP) receptor (AFPR) (human); test: AF-647 labeled rhAFP incubated with MOLT-4 cells at 37 C for 0.5, 2 and 5 h, plate reader fluorescence
# [8] = molecular target: alpha-fetoprotein (AFP) receptor (AFPR) (human); test: AF-647 labeled rhAFP incubated with SKOV-3 cells at 37 C for 0.5, 2 and 5 h, plate reader fluorescence
# [9] = molecular target: alpha-fetoprotein (AFP) receptor (AFPR) (human); test: AF-647 labeled rhAFP incubated with OVCAR-3 cells at 37 C for 0.5, 2 and 5 h, plate reader fluorescence
# [10] = molecular target: alpha-fetoprotein (AFP) receptor (AFPR) (human); test: AF-647 labeled rhAFP incubated with COLO 205 cells at 37 C for 0.5, 2 and 5 h, plate reader fluorescence
# [11] = Maximum tolerated dose in healthy mice; assay type: in vivo; conditions: Q1D×5 for 2 weeks, clinical observations and AST/ALT
# Method: The four ABZ981-containing bioconjugates above were resynthesized and formulated in a 10 mM HEPES buffer, 5% sucrose at pH 7.5 (Table 6). Prior to testing the efficacy in tumor-bearing mice, the maximum tolerated dose (MTD) was determined for each bioconjugate in healthy mice, employing the same dosing regimen used for the efficacy study (Q1D×5 for 2 weeks) at doses of 0, 5, 10, 20 and 40 mg/kg. MTD was based on clinical observations made daily during the dosing period and elevations of liver enzymes (AST/ALT) determined at the end of treatment. […] In general, a bioconjugate with a higher DPR which carries a larger amount of toxin would be expected to have a lower MTD.
# [12] = tested on: MCF-7; test: Cytotoxicity of bioconjugates of varying DPR (Series 1); assay type: cell-based, human
# Method: (§2) A series of bioconjugates containing DM1, DM3, DM4 or ABZ981 synthesized under varying reaction conditions, resulting in different average DPRs. The cytotoxicity of these bioconjugates were evaluated in vitro in a panel of tumor cell lines (leukemia, breast, colorectal, ovarian and lung).
# [13] = tested on: U937; test: as above; assay type: cell-based, human; conditions: Series 1 bioconjugates
# Method: as §2
# [14] = tested on: COLO 205; test: Binding of AF-647 labeled rhAFP (ACT-101) to tumor cells; design: species or system human; conditions: COLO 205, metastatic colorectal adenocarcinoma
# Method: (§3) Prior to testing lead compounds in vitro, the expression of the AFP receptor and ability of cells to bind and take up fluorescently-labelled rhAFP was established in the U937 cell line as well as other cell lines, as in the study summarized in Table 1 below. In this study, rhAFP was labeled using the procedures described in the product protocol from commercially available Alexa Fluor-647 (AF-647) protein labeling kits. Binding experiments were performed in 96-well plates and fluorescence was measured using a plate reader. Tumor cells were cultured in suspension or plated in cell culture media. Each tumor cell line was incubated with AF-647 labeled rhAFP at 37° C. for 0.5, 2 and 5 hours (n=3 replicates). Incubation was stopped by chilling on ice. For cells in suspension, cells and culture medium were collected separately by centrifugation and subjected to repeat wash steps. For plated cells, trypsin/EDTA was used for cell detachment.
# [15] = tested on: H522; test: as above; design: species or system human; conditions: H522, non-small cell lung adenocarcinoma
# Method: as §3
# [16] = tested on: MCF7; test: as above; design: species or system human; conditions: MCF7, breast adenocarcinoma
# Method: as §3
# [17] = tested on: MOLT-4; test: as above; design: species or system human; conditions: MOLT-4, acute lymphoblastic leukemia
# Method: as §3
# [18] = tested on: OVCAR-3; test: as above; design: species or system human; conditions: OVCAR-3, ovary adenocarcinoma; 37° C., 0.5, 2 and 5 hours
# Method: as §3
# [19] = tested on: SKOV-3; test: as above; design: species or system human; conditions: SKOV-3, ovary adenocarcinoma
# Method: as §3
# [20] = tested on: U-937; test: as above; design: species or system human; conditions: U-937, histiocytic lymphoma
# Method: as §3
# [21] = tested on: ovarian cancer organoids; test: Ovarian cancer organoids from two patients; assay type: cell-based
# [22] = tested on: COLO-205 colorectal cancer xenografts; test: COLO-205 colon carcinoma xenograft efficacy, daily dosing for 2 weeks; assay type: in vivo, mice; conditions: dosed at MTD, FIG. 2
# Method: In the colon carcinoma xenograft model, 7 week old athymic male mice were implanted with 1×10^7 COLO-205 cells subcutaneously in the right flank. Mice with tumors of approximately 100 mm^3 to 200 mm^3 were randomized to receive control (vehicle) or one of the 4 bioconjugates (10 animals/group). Animals were treated daily for 2 weeks with 2 days of rest after 5 doses; tumor volume was assessed twice weekly for 60 days following implantation. FIGS. 2 and 3 reveal the valuable properties of the present bioconjugates in the COLO 205 human xenograft model of colon cancer as shown by this study.
# [23] = 25 mg/kg single IV, COLO-205 tumor
# Method: Bioconjugates containing DM4, DM1 or ABZ981 were resynthesized at a DPR of approximately 4 (Table 3) for comparative testing in a pharmacokinetic/biodistribution (PK/BD) study in mice subcutaneously implanted with COLO-205 tumor xenografts.
# The volumes of administration were adjusted to deliver the same amount of bioconjugate (25 mg/kg) to each group of animals as a single IV injection into the tail vein. Blood samples were taken at 0.25 and 1 hours post-injection and blood and tissue samples were taken at 4, 8 and 24 hours to evaluate the pharmacokinetics and biodistribution of the bioconjugates (n=3 per timepoint). A commercially available ELISA kit was used to measure AFP levels and levels of free maytansine and its metabolites were measured by LC/MS.
molecule,measurement,setting,value
COc1cc2cc(c1-c1ccc(NC(=O)CCC(C)S)cc1)N(C)C(=O)C[C@H](OC(=O)C(C)C)[C@]1(C)O[C@H]1[C@H](C)[C@@H]1C[C@@](O)(NC(=O)O1)[C@H](OC)/C=C/C=C(\C)C2 (stereo partly shown) [ABZ-981],IC50,[1],5.53 nM
same,IC50,"[2]; read-out: Average IC50 U937 cultured cells (n = 1), cells maintained in culture",3.06 nM
same,IC50,"[2]; freshly thawed cells, read-out: Average IC50 U937 freshly thawed cells (n = 2)",2.84 nM
same,IC50,[3]; Homo sapiens,6.1 nM
B1,Highest AFP binding over 5 h Period (ng/million cells),[4],71.1
same,Highest AFP binding over 5 h Period (ng/million cells),[5],126
same,Highest AFP binding over 5 h Period (ng/million cells),[6],84.3
same,Highest AFP binding over 5 h Period (ng/million cells),[7],19
same,Highest AFP binding over 5 h Period (ng/million cells),[8],31.3
same,Highest AFP binding over 5 h Period (ng/million cells),[9],71
same,Highest AFP binding over 5 h Period (ng/million cells),[10],75
B2,IC50,[3],4.1 nM
same,Dose (MTD),[11],10 mg/kg
B3,potency lower than ABZ981 and DM4 conjugates,"[12]; MCF-7, Series 1",approximately 3 fold
same,IC50,[12]; Series 1 bioconjugates,4.62 nM
same,IC50,[13],1.6 nM
B4,Highest AFP binding over 5 h Period,[14],75.0 ng/million cells
same,Highest AFP binding over 5 h Period,[15],71.1 ng/million cells
same,Highest AFP binding over 5 h Period,[16],126 ng/million cells
same,Highest AFP binding over 5 h Period,[17],19.0 ng/million cells
same,Highest AFP binding over 5 h Period,[18],71.0 ng/million cells
same,Highest AFP binding over 5 h Period,[19],31.3 ng/million cells
same,Highest AFP binding over 5 h Period,[20],84.3 ng/million cells
same,binding and uptake of fluorescently labeled protein by organoids,[21],bound to and was rapidly taken up
same,"apoptosis, AnnexinV staining","[21]; by 72 hr, even at low concentrations",innocuous to the cells
B5,IC50,[3],12.9 nM
same,Dose (MTD),[11],20 mg/kg
B6,effect on the growth of the COLO-205 tumors,[22],"dramatic, inhibitory effect"
B7,IC50,[3],17.2 nM
same,Dose (MTD),[11],10 mg/kg
B8,effect on the growth of the COLO-205 tumors,[22],"dramatic, inhibitory effect"
B9,Peak free toxin levels normalized to AFP (toxin release in tumors),[23],18 % of the AFP levels in tumor
same,"toxin level in tumor (free maytansine plus metabolites), times higher than DM1 conjugate",[23],approximately 3 times
same,"toxin level in tumor (free maytansine plus metabolites), times higher than DM4 conjugate",[23],~22 times
